Measurements taken from patent US20170037089A1 (IMMATICS BIOTECHNOLOGIES, published 2017).

Biological target: T1, HLA-A*02 (peptide-receptive MHC class I monomer after UV-ligand exchange) (human)
T1 construct: also called HLA-A*02:01; HLA-A*0201
Experiment: UV-ligand exchange, b2m ELISA; peptide exchange yield grade (>=10% +; >=20% ++; >=50 +++; >=75% ++++)
From the text: Candidate peptides for T cell based therapies according to the present invention were further tested for their MHC binding capacity (affinity). The individual peptide-MHC complexes were produced by UV-ligand exchange, where a UV-sensitive peptide is cleaved upon UV-irradiation, and exchanged with the peptide of interest as analyzed. Only peptide candidates that can effectively bind and stabilize the peptide-receptive MHC molecules prevent dissociation of the MHC complexes. To determine the yield of the exchange reaction, an ELISA was performed based on the detection of the light chain (β2m) of stabilized MHC complexes. The assay was performed as generally described in Rodenko et al. (Rodenko et al., 2006).
96 well MAXISorp plates (NUNC) were coated over night with 2 ug/ml streptavidin in PBS at room temperature, washed 4× and blocked for 1 h at 37° C. in 2% BSA containing blocking buffer. Refolded HLA-A*02:01/MLA-001 monomers served as standards, covering the range of 15-500 ng/ml. Peptide-MHC monomers of the UV-exchange reaction were diluted 100 fold in blocking buffer. Samples were incubated for 1 h at 37° C., washed four times, incubated with 2 ug/ml HRP conjugated anti-32m for 1 h at 37° C., washed again and detected with TMB solution that is stopped with […]. Absorption was measured at 450 nm. Candidate peptides that show a high exchange yield (preferably higher than 50%, most preferred higher than 75%) are generally preferred for a generation and production of antibodies or fragments thereof, and/or T cell receptors or fragments thereof, as they show sufficient avidity to the MHC molecules and prevent dissociation of the MHC complexes.

Binder | peptide exchange yield [%]
SLFHPEDTGQV (also called KLK3-004) [SLFHPEDTGQV (SEQ ID No. 49)] | 50 to 75
GMLNEAEGKAIKL [GMLNEAEGKAIKL (SEQ ID No. 9)] | 50 to 75
HLLEDIAHV (also called NEFH-001) [HLLEDIAHV (SEQ ID No. 3)] | ≥ 75
SLYDSIAFI [SLYDSIAFI (SEQ ID No. 22)] | ≥ 75
KMDEASAQLL [KMDEASAQLL (SEQ ID No. 14)] | 20 to 50
ALLTFVWKL (also called TRPM8-002) [ALLTFVWKL (SEQ ID No. 4)] | ≥ 75
KIFSRLIYI (also called TRPM8-003) [KIFSRLIYI (SEQ ID No. 5)] | 50 to 75
KMDEASAQL [KMDEASAQL (SEQ ID No. 16)] | 50 to 75
ALGDLVQSV [ALGDLVQSV (SEQ ID No. 52)] | 50 to 75
ALLESRVNL (also called PDE11-001) [ALLESRVNL (SEQ ID No. 6)] | ≥ 75
AMAPNHAVV [AMAPNHAVV (SEQ ID No. 13)] | 50 to 75
SLLSHQVLL [SLLSHQVLL (SEQ ID No. 20)] | 50 to 75
KMDEASAQLLA [KMDEASAQLLA (SEQ ID No. 15)] | 50 to 75

Continued, values first:

peptide exchange yield [%] | Binder
50 to 75 | TLWRGPVVV [TLWRGPVVV (SEQ ID No. 10)]
≥ 75 | VTAQIGIVAV (also called OR51E2-001) [VTAQIGIVAV (SEQ ID No. 1)]
20 to 50 | YLNDSLRHV [YLNDSLRHV (SEQ ID No. 21)]
20 to 50 | TLLQVVGVVSV [TLLQVVGVVSV (SEQ ID No. 7)]
20 to 50 | YLEEECPAT [YLEEECPAT (SEQ ID No. 11)]
50 to 75 | YLLKDKGEYTL [YLLKDKGEYTL (SEQ ID No. 53)]
≥ 75 | SMLGEEIQL (also called GREB-001) [SMLGEEIQL (SEQ ID No. 2)]
